Residue numbers refer to the chain shown, from its start. Numbers in names are those of the source. Where “and” joins values, the source holds several entries; their conditions need not be identical. Equal entries are not always repeated. Where two headings read alike, the source gives them in different places.
B1: FGF21 470K: analog of FGF21 470A where the C-terminal alanine is replaced with a lysine (protein)
chain: HPIPDSSPLLQFGGQVRQRYLYTDDAQQTECHLEIREDGTVGCAADQSPESLLQLKALKPGVIQILGVKTSRFLCQRPDGALYGSLHFDPEACSFREDLKEDGYNVYQSEAHGLPLHLPGDKSPHRKPAPRGPARFLPLPGLPPALPEPPGILAPQPPDVGSMDPFGLVGRSQGRSPSFEK
B2: FGF21 431K: analog of FGF21 431A where the C-terminal alanine is replaced with a lysine (protein)
chain: B1 chain with R171P
B3: FGF21 431A: FGF21 N-terminus (A31C, G43C, L98D, L100K, N121D, D127K) fused to peptide 0431 (protein, listed as Homo sapiens)
chain: B1 chain with R171P, K181A
B4: FGF21 470A: modified FGF21 N-terminus fused to peptide 0470 (protein, listed as Homo sapiens)
chain: B1 chain with K181A
B5: 0278-1A: fusion of the N-terminus of FGF21 and C-terminal peptide FGF19 A26 (protein, listed as Homo sapiens)
chain: HPIPDSSPLLQFGGQVRQRYLYTDDAQQTEAHLEIREDGTVGGAADQSPESLLQLKALKPGVIQILGVKTSRFLCQRPDGALYGSLHFDPEACSFRELLLEDGYNVYQSEAHGLPLHLPGNKSPHRDPAPRGPARFLPLPGLPPALPEPPGILAPQLETDSMDPFGLVTGLEAVRSPSFEA
B6: V2-0278-1A: 0278-1A with A31C, G43C, L98D, L100K, N121D, D127K (protein, listed as Homo sapiens)
chain: B5 chain with A31C, G43C, L98D, L100K, N121D, D127K
B7: FGF21: native full length mature FGF21 protein (protein, listed as Homo sapiens)
chain: HPIPDSSPLLQFGGQVRQRYLYTDDAQQTEAHLEIREDGTVGGAADQSPESLLQLKALKPGVIQILGVKTSRFLCQRPDGALYGSLHFDPEACSFRELLLEDGYNVYQSEAHGLPLHLPGNKSPHRDPAPRGPARFLPLPGLPPALPEPPGILAPQPPDVGSSDPLSMVGPSQGRSPSYAS

Columns and labels:
[1] = system: FGF21 receptor; test: Erk1/2 phosphorylation assay: agonist activity in 293T HEK hKLB cells; assay type: cell-based, human; conditions: for IC50: full length FGF21 analogs, tested in triplicate
FGF21 receptor, sequence (Q86Z14 whole entry): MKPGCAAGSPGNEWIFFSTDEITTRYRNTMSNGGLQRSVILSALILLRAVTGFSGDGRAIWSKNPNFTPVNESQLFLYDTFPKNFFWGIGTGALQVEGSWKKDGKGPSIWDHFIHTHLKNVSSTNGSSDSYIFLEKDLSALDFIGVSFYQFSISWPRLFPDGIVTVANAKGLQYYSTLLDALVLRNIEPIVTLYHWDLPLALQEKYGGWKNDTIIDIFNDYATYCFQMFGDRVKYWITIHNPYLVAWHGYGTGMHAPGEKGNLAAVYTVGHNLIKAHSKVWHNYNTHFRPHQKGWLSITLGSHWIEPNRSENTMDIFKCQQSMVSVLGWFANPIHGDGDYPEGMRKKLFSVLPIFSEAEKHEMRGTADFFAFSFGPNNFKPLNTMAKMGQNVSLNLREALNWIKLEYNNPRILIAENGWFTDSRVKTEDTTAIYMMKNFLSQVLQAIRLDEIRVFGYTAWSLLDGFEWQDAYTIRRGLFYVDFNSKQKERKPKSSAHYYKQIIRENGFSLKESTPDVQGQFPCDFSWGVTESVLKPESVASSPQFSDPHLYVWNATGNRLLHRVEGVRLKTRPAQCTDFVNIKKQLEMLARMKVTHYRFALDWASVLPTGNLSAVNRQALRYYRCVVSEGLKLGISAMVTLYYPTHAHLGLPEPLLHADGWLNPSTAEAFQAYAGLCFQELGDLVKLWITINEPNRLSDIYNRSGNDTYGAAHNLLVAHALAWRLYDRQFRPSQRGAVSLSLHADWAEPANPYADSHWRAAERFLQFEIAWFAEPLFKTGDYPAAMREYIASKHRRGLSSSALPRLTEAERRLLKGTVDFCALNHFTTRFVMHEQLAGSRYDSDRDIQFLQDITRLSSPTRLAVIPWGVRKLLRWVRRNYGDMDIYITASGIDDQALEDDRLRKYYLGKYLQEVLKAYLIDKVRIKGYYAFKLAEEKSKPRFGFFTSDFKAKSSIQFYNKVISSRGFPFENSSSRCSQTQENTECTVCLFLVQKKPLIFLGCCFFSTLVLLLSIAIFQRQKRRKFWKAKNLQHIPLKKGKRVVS
Procedure: Cells were cultured in 10% Fetal Bovine Serum containing DMEM High glucose GLUTAMAX® at 37 C, 95% humidity, 5% CO2. For generating the cell line with stable expression, human KLB gene was synthesized by Genscript and subcloned into pcDNA3.1(+) with ZEOCIN® resistance vector (INVITROGEN®) by NheI and NotI restriction enzyme sites. HEK 293T cells were obtained from ATCC and were transiently transfected at 80% confluency using Lipofectamine 3000 (Invitrogen). Selection for KLB-expressing cells was initiated 48 hours post-transfection in the growth media containing 100 μg/ml of ZEOCIN® (Gibco) and continued for 4 weeks with fresh media added every third day. Human KLB expression in pooled cells was confirmed by Western blot and a functional FGF21 MAPK phosphorylation assay.
293 HEK cells expressing hKLB were plated to 90% confluency in 96 well plates coated with poly-D-Lysine. Cells were serum starved for three hours in 0.1% BSA containing media prior to stimulation with protein and/or an antagonist peptide for ten minutes at 37° C. The cell lysate was used for the detection of phospho-Erk1/2 levels by AlphaSureFire kit using the prescribed protocol. The degree of biochemical activation was recorded and analyzed using Origin software by logistic curve fitting. Tests at each concentration were done in triplicates, and the standard deviation is as shown in the graphs. The calculation of maximal activities was done keeping the FGF21 157-181 or FGF19 169-194 peptide activity as standard. The difference between the Erk1/2 phosphorylation signal for the highest (10 μM) and the lowest (0 μM) tested dose for native peptide was considered as 100% and accordingly all the other values were assigned.

[2] = target: T1, mouse KLB (Mus musculus, UniProt P16092+Q99N32); test: agonism in cells overexpressing mouse KLB; assay type: cell-based; conditions: FIG. 11B, read-out: potency (agonism)
T1 construct: expressed in transfected cells
T1 sequence (Q99N32 whole entry): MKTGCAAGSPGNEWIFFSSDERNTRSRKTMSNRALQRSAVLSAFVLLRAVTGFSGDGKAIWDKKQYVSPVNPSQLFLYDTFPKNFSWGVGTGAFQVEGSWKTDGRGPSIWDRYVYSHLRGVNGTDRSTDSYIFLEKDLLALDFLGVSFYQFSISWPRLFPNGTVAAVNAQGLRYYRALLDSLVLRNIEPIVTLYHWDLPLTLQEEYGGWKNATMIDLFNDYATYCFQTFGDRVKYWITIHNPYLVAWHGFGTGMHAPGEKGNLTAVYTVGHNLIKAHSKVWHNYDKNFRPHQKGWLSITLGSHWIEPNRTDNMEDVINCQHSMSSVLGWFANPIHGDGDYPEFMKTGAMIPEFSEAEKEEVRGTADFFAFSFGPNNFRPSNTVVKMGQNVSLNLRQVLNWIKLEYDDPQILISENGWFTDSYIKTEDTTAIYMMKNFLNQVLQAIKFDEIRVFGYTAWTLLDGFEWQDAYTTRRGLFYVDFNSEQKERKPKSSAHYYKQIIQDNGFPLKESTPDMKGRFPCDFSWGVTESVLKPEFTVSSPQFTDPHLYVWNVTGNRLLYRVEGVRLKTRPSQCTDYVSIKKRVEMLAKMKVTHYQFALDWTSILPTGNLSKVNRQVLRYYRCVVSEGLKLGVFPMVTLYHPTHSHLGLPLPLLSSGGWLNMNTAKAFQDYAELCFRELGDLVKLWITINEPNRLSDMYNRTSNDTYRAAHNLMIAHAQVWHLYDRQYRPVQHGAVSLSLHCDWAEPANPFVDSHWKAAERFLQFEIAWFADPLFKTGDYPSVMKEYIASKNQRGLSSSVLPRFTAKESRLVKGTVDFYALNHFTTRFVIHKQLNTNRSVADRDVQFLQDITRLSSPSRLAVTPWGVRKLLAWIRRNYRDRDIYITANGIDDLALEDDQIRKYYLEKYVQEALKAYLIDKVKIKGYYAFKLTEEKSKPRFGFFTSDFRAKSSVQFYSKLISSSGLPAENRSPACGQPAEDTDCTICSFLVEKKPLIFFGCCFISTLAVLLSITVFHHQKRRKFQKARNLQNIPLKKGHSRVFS
T1 sequence (P16092 22-822): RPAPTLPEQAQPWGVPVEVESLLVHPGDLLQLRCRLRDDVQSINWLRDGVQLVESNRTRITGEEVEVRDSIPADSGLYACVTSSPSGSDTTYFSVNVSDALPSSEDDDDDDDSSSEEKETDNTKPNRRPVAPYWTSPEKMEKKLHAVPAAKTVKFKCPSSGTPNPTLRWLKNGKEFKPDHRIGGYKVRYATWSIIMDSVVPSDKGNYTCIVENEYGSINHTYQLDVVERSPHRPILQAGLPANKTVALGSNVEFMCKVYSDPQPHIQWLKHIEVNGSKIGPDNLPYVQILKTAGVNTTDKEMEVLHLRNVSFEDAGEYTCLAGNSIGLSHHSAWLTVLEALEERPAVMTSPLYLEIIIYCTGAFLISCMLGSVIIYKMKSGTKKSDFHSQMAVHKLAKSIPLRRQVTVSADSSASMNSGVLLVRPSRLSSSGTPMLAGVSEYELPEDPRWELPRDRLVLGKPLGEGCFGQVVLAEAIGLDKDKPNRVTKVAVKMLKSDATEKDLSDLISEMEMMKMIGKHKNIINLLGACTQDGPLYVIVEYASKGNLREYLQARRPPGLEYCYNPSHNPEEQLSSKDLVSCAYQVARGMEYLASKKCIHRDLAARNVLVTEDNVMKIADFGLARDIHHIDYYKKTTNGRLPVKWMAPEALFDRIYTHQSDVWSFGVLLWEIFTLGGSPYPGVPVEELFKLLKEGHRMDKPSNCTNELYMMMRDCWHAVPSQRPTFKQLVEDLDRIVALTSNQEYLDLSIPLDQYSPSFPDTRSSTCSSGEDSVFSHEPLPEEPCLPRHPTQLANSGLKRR

[3] = in vivo administration of FGF analogs to mice on diabetogenic diet; set-up: species or system C57Bl/6 mice; conditions: 0.3 or 1.0 mg/kg daily subcutaneous, relative to native FGF21; for change in body weight: 6 days
Procedure: C57Bl/6 mice were obtained from Jackson Laboratories and fed a diabetogenic diet from Research Diets: a high-sucrose diet with 58% kcal from fat. Mice were group-housed on a 12:12-h light-dark cycle at 22° C. with free access to food and water. All studies were approved by and performed according to the guidelines of the Institutional Animal Care and Use Committee of the University of Cincinnati. All mice were treated by daily subcutaneous injections delivered in physiologically buffered saline at a dose of 0.3 or 1 mg/kg. Animals were weighed and food consumption was measured each day.
Unless indicated otherwise, all statistical analyses were performed using GraphPad Prism. The analysis of the results obtained in the in vivo experiments was performed using one-way ANOVAs followed by Tukey post hoc tests. P values lower than 0.05 were considered significant. The results are presented as means±s.e.m. of 7-8 replicates per group. Receptor activation data is ±s.d.
The effect of FGF analog V2-0278-1A on mice was investigated by administering either vehicle, FGF21 (at 0.3 mg/kg or 1.0 mg/kg) or V2-0278-1A (at 0.3 mg/kg or 1.0 mg/kg) and monitoring weight over the course of 6 days of treatment.

[4] = FIG. 11A, cells overexpressing human KLB, read-out: potency (agonism)
[5] = FIGS. 9A/9B, full length proteins, Erk1/2 phosphorylation, read-out: EC-50
[6] = FIG. 12, cells overexpressing human KLB, read-out: potency

| Molecule | EC50 [1, 4] [nM] | EC50 [2] [nM] | IC50 [1] [nM] | further results |
| --- | --- | --- | --- | --- |
| FGF19: native full length FGF19 protein [reference compound] | 65.8 ± 58.2 | 25.7 ± 21.3 |  | % maximal activity ([1]; FIGS. 9A/9B, full length proteins, Erk1/2 phosphorylation): 27%; EC50 [1, 5]: 148 nM |
| B1 |  |  | 6.14 ± 1.93 |  |
| B2 |  |  | 4.3 ± 0.07 |  |
| B3 |  |  | 0.51 ± 0.21 |  |
| B4 |  |  | 0.61 ± 0.06 |  |
| B5 | 1.82 ± 0.37 | 2.15 ± 0.54 |  | EC50 [1, 6]: 1.13 ± 0.28 nM |
| B6 |  |  |  | EC50 [1, 6]: 0.35 ± 0.12 nM; fold higher potency versus 0278-1A ([1]; cells overexpressing human KLB): 2-3 ×; change in body weight [3]: enhanced weight loss; change in body weight ([3]; listed as 0361): superior change in body weight; food intake [3]: reduced food intake; food intake ([3]; listed as 0361): greater reduction in total food intake |
| B7 | 8.42 ± 4.1 | 3.96 ± 1.51 |  | EC50 [1, 5]: 4.5 nM and 3.3 nM |
